The record followed here is US20030215450A1 (published 2003).

In test [1] the target is T1, soluble human RANKL protein (human, UniProt O14788 140-317, limits assumed, biotinylated with NHS-biotin at a 20:1 molar ratio of NHS-biotin to protein (competition ELISA only)).
T1 sequence (looked up): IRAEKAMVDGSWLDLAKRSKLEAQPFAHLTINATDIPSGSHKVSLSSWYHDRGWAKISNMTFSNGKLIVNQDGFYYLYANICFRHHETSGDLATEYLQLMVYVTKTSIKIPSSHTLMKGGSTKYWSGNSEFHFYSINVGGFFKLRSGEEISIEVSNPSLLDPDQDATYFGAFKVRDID
The test can be described thus: cell-based or functional assay.

Test [2] addresses T1, soluble human RANKL protein. Description: competition ELISA: biotinylated shRANKL (0.43 nM) binding to coated RANK-Fc, competitor in solution. The source says:
A. A competition ELISA was established using a human RANK-Fc fusion protein coated on plastic and a biotinylated soluble human RANKL protein for detection in solution. The RANK-Fc and RANKL proteins were produced in CHO cells and Pichia pastoris, respectively, and purified to >90% homogeneity. The shRANKL (soluble, human RANKL) protein was biotinylated at a 20:1 molar ratio of NHS-biotin to protein (Pierce, Rockford, Ill.) according to the manufacturer's specifications. 96-well ELISA plates were coated overnight at 4° C. with 50 ng/well […] RANK-Fc in pH 9.6 carbonate-bicarbonate buffer. Plates were washed in pH 7.4 Tris-Saline buffer containing 0.1% Tween 20 and blocked for 2 h at RT in 1% BSA/PBS. Competitor proteins (RANK-Fc; death receptor 5 (DR5)-Fc; OPG-Fc; RANKL mAb 2A4) were diluted in 0.01% Tween 20/PBS and added to wells prior to the addition of biotinylated shRANKL (0.43 nM) and the combined samples were incubated for 2 hrs at room temperature. The amount of biotinylated shRANKL bound to coated RANK-Fc (±competitor) was measured using alkaline phosphatase conjugated streptavidin. The substrate for signal detection was 105 PNPP (Pierce Inc., Rockford, Ill.) and absorbance measured at 405 nm using a Spectra Max 340 plate reader.
On the technique in general: An ELISA detects its analyte on a solid surface through an enzyme-linked reagent.

The target of another test is T2, murine RANK-L (murine, UniProt O35235 158-316, limits assumed).
T2 sequence (looked up): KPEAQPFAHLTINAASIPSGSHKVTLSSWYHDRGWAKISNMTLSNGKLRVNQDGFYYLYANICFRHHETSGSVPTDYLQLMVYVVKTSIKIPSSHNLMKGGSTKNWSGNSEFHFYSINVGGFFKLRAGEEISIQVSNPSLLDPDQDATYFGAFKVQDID
Description: not described.

Test [3] concerns the target T1, soluble human RANKL protein. Description: not described with the number; paragraph 33 defines high affinity as determined by optical biosensor analysis.

B1: human RANK-Fc fusion protein (Fc fusion, UniProt Q9Y6Q6 30-212, looked up)
chain: IAPPCTSEKHYEHLGRCCNKCEPGKYMSSKCTTTSDSVCLPCGPDEYLDSWNEEDKCLLHKVCDTGKALVAVVAGNSTTPRRCACTAGYHWSQDCECCRRNTECAPGLGAQHPLQLNKDTVCKPCLAGYFSDAFSSTDKCRPWTNCTFLGKRVEHHGTEKSDAVCSSSLPARKPPNEPHVYLP
notes: Produced in CHO cells; not shown: Fc part
B1: the “IC50, formation of multinuclear cells, human monocyte osteoclastogenesis with 50 ng/ml human soluble RANKL plus M-CSF” value in test [1] is about 0.5 µg/mL. Further, the IC50 in test [2] was about 6 nM.

B2: mouse monoclonal antibody 2A4 (antibody, mouse IgG2a, V domains shown)
VH: EVQLVESGGDLVKPGGSLKLSCAASGFTFSRYGMSWVRQTPDKRLEWVATISSGGSYIYYPDSVKGRFTISRDNAKNTLYLQMSSLKSEDTAMYYCARLDGYNYRWYFDVWGTGTTVTVSS
VL: DIVMTQSHKFMSTSVGDRVSITCKASQDVSTAVAWYQQKPGQSPKLLIYSASYRYTGVPDRFTGSGSGTDFTFTISSVQAEDLAVYYCQQHYSSPRTFGGGTNLEIK
notes: the latter are followed; also called mAb 2A4; 2A4 Mab
For B2, the binding result with murine RANK-L is on record as “no binding”. In test [1], the “IC50, formation of multinuclear cells, human monocyte osteoclastogenesis with 50 ng/ml human soluble RANKL plus M-CSF” value was about 4 µg/mL. For the same molecule, in test [2], the IC50 is about 2 nM. The Kd in test [3] was about 0.1 nM.

B3: OPG-Fc (Fc fusion, UniProt O00300 22-194, looked up)
chain: ETFPPKYLHYDEETSHQLLCDKCPPGTYLKQHCTAKWKTVCAPCPDHYYTDSWHTSDECLYCSPVCKELQYVKQECNRTHNRVCECKEGRYLEIEFCLKHRSCPPGFGVVQAGTPERNTVCKRCPDGFFSNETSSKAPCRKHTNCSVFGLLLTQKGNATHDNICSGNSESTQK
notes: Construct not described; also called osteoprotegerin-Fc; not shown: Fc part; not described
Regarding B3, the IC50 in test [2] is about 0.5 nM.

Usually IC50 stands for the concentration needed to halve the response being measured. Usually Kd stands for a measure of binding affinity in units of concentration.
